Measured values: patent US20240050583A1 (HARBOUR BIOMED SHANGHAI, published 2024)
Substitutions are numbered along the chain they refer to.

Legend:
human CTLA4 = molecular target: T1, human CTLA4 (human, UniProt P16410 36-223); assay: flow cytometry (FACS) on HEK293/hCTLA4 cells
T1 construct: whole, on cells; HEK293T cell strain HEK293/hCTLA4 highly expressing human CTLA4 (constructed by Harbour BioMed); also called hCTLA4; CD152
T1 sequence (looked up): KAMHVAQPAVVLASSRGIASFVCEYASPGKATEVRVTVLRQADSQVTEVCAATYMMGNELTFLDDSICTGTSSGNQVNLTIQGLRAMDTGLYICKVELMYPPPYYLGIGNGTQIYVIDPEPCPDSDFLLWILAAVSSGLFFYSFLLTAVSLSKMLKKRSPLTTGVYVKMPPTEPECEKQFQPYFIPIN
Method: The binding ability of the antibody molecules to an HEK293T cell strain HEK293/hCTLA4 (constructed by Harbour BioMed) highly expressing human CTLA4 and other cells was determined by flow cytometry FACS. Specifically, the HEK293/hCTLA4 cells were digested and resuspended in a DMEM medium, with the cell density adjusted to 1×10⁶ cells/mL. HEK293 cells not expressing CTLA4 were used as a negative control. Thereafter, the cells were seeded in a 96-well V-bottom plate (Corning, #3894) at 100 μL/well and centrifuged at 4° C. for 5 min, and the supernatant was discarded. Then, the serially diluted antibody molecules were added to the 96-well plate at 100 μL/well, and the mixtures were well mixed. […]
Then, the cells in each well were rinsed twice with 100 μL of pre-cooled FACS buffer (PBS buffer containing 0.5% BSA) and centrifuged at 500 g at 4° C. for 5 min, and then the supernatant was discarded. […] Fluorescence signal values were read using a BD FACS CANTOII flow cytometer, and the data were processed and analyzed using FlowJo v10 (FlowJo, LLC) software. The data were processed and analyzed by plotting using GraphPad Prism 8 software, and binding curves of the antibodies to target cells, EC₅₀ values and other parameters were obtained through four-parameter nonlinear fitting.

human BCMA [1] = molecular target: T2, human BCMA (human, UniProt Q02223 1-184); assay: flow cytometry (FACS) on HEK293T-hBCMA and NCI-H929 cells, legend of FIG. 32
T2 construct: whole, on cells; also called hBCMA; tumor necrosis factor receptor superfamily member 17
T2 sequence (looked up): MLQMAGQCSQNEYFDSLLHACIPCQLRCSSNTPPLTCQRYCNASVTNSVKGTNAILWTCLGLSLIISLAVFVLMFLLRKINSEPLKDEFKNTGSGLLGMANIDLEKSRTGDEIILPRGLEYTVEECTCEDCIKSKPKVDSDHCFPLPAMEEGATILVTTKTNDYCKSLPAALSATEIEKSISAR

human BCMA [2] = molecular target: T2, human BCMA; assay: flow cytometry (FACS) on HEK293T-hBCMA cells
human 5T4 = molecular target: T3, human 5T4 (human, UniProt Q13641 32-420); assay: flow cytometry (FACS) on HCC1954 cells highly expressing human 5T4
T3 construct: whole, on cells; also called trophoblast glycoprotein; TPBG
T3 sequence (looked up): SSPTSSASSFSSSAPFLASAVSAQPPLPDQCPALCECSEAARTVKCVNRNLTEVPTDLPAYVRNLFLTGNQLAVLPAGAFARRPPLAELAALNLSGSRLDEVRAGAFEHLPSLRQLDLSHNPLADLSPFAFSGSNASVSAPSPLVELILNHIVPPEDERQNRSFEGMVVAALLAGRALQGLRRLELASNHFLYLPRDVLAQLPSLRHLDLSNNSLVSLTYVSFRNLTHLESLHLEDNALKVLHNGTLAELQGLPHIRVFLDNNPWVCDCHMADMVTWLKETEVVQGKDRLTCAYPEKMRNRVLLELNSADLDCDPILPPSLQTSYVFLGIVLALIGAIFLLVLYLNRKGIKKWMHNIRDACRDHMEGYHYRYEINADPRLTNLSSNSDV
Method: The binding ability of the antibody molecules to a human breast cancer cell strain HCC1954 (ATCC, CRL-2338) highly expressing human 5T4 was determined by flow cytometry FACS. Specifically, the cell density was adjusted to 1×10⁶ cells/mL. The cells were seeded in a 96-well V-bottom plate (Corning, #3894) at 100 μL/well, followed by the addition of test antibodies diluted in a 3-fold gradient at a concentration that was 2 times the final concentration, each at 100 μL/well. The cells were incubated at 4° C. for 1 h away from light. Thereafter, the cells in each well were rinsed twice with 100 μL of pre-cooled PBS, and centrifuged at 500 g at 4° C. for 5 min, and then the supernatant was discarded. Thereafter, a fluorescent secondary antibody (Alexa Fluor 488-conjugated AffiniPure Goat Anti-Human IgG, Fcγ Fragment Specific, Jackson ImmunoResearch Inc., #109-545-098, diluted in a 1:500 ratio) was added at 100 μL/well, and the plate was incubated at 4° C. for 30 min away from light. The cells in each well were then rinsed twice with 100 μL of pre-cooled PBS and centrifuged at 500 g at 4° C. for 5 min, and then the supernatant was discarded. Finally, the cells in each well were resuspended in 200 μL of pre-cooled PBS. Fluorescence signal values were read using a BD FACS CANTOII flow cytometer, and the data were processed and analyzed using FlowJo v10 (FlowJo, LLC) software.

B1: HCAb PR000020 (antibody, human IgG1, V domains shown)
VH: EVQLVETGGGLIQPGGSLRLSCAASGLNVSRHYLSWVRQAPGKGLEWVAVIYSGGGIEYVDSVKGRFTISRDNANNTLYLQMRSLRTEDSAVYYCARAIPRPHGSDIWGQGTMVTVSS
notes: Fully human heavy-chain-only antibody (VH, human IgG1 hinge, CH2, CH3), dimer of two heavy chains, no light chain; also called CL24; anti-CTLA4 HCAb antibody PR000020
binding result (human CTLA4): binds

B2: PR004433-ADC (antibody, human IgG1, V domains shown)
VH: EVQLVETGGGLIQPGGSLRLSCAASGFTVSDSYMTWVRQAPGKGLEWVSVIFSGGRTYYSDSVKGRFTISRDNAKNTLYLQMNSLRAEDTALYYCARRNYDDTRGTDVFDIWGQGTMVTVSS
modifications: mc-vc-PAB-MMAE coupled to Cys-220 (Eu numbering; 98% of the site coupled)
notes: Coupling product of HCAb PR004433 with mc-vc-PAB-MMAE, main component DAR=2; also called coupling product PR004433-ADC
binding result (human BCMA [1]): binds

B3: HCAb PR001046 (antibody, human IgG1, V domains shown)
VH: B2 VH with S32N, R56N, S60A
notes: Fully human heavy-chain-only antibody with human IgG1 hinge and Fc; also called 1005P63B7; anti-BCMA HCAb antibody PR001046
binding result (human BCMA [2]): binds

B4: PR001046-ADC (antibody, human IgG1, V domains shown)
VH: B2 VH with S32N, R56N, S60A
modifications: mc-vc-PAB-MMAE coupled mainly to the cysteine at site 127 (Cys-220 according to Eu numbering)
notes: Purified coupling product of HCAb PR001046 with mc-vc-PAB-MMAE, main component DAR=2; also called coupling product PR001046-ADC
binding result (human BCMA [2]): binds

B5: PR000020-ADC (antibody, human IgG1, V domains shown)
VH: B1 VH
modifications: mc-vc-PAB-MMAE coupled to C124 (Cys-220 according to Eu numbering)
notes: Purified coupling product of HCAb PR000020 with mc-vc-PAB-MMAE, main component DAR=2; also called coupling product PR000020-ADC
binding result (human CTLA4): binds

B6: HCAb PR004432 (antibody, human IgG1, V domains shown)
VH: EVQLQQSGPGLVKPSQTLSLTCAISGDSVSNNYAAWNWIRQSPSRGLEWLGRTYYRSKWYNDYAVSVKSRITINPDTSKNQFSLQLNRVTPEDTAVYYCARDNYYGSGSPPVDALDIWGQGTMVTVSS
notes: Fully human heavy-chain-only antibody with human IgG1 hinge and Fc; also called 1041P014H2; anti-5T4 HCAb antibody PR004432
binding result (human 5T4): binds

B7: PR004432-ADC (antibody, human IgG1, V domains shown)
VH: B6 VH
modifications: mc-vc-PAB-MMAE coupled to Cys-220 (Eu numbering; 97.12% of the site coupled)
notes: Purified coupling product of HCAb PR004432 with mc-vc-PAB-MMAE, main component DAR=2; also called coupling product PR004432-ADC
binding result (human 5T4): binds
